According to US20250152746A1, “BASE EDITING OF ANGPTL3 AND METHODS OF USING SAME FOR TREATMENT OF DISEASE” (Verve Therapeutics, Inc., priority 2020, published 2025):
In the oligonucleotide strings, read from the 5' end, every base follows the letter of its sugar. An asterisk marks phosphorothioate; unmarked linkages are phosphodiester. Other units and linkages are bracketed, terminal groups are in braces. A string of capitals states the bases alone. m = 2'-O-methyl; r = 2'-OH (RNA)

B1: GA158: PCSK9 gRNA; protospacer GCTAGCCTTGCGTTCCGAGG (SEQ ID NO: 152) (nucleic acid)
guide: mG*mC*mU*rArGrCrCrUrUrGrCrGrUrUrCrCrGrArGrGrGrUrUrUrUrArGrArGrCrUrArGrArArArUrArGrCrArArGrUrUrArArArArUrArArGrGrCrUrArGrUrCrCrGrUrUrArUrCrArArCrUrUrGrArArArArArGrUrGrGrCrArCrCrGrArGrUrCrGrGrUrGrCrU*mU*mU*mU
B2: GA204: PCSK9 gRNA; protospacer CACTCTGTATGCTGGTGTCT (SEQ ID NO: 198) (nucleic acid)
guide: CACUCUGUAUGCUGGUGUCUGUUUUAGAGCUAGAAAUAGCAAGUUAAAAUAAGGCUAGUCCGUUAUCAACUUGAAAAAGUGGCACCGAGUCGGUGCUUUU
modifications: sugars from the 5' end m3 r94 m3, linkages s3 o93 s3 (s phosphorothioate, o phosphodiester), T or U not given here
B3: GA201: PCSK9 gRNA; protospacer CAGCATACAGAGTGACCACC (SEQ ID NO: 195) (nucleic acid)
guide: CAGCAUACAGAGUGACCACCGUUUUAGAGCUAGAAAUAGCAAGUUAAAAUAAGGCUAGUCCGUUAUCAACUUGAAAAAGUGGCACCGAGUCGGUGCUUUU
modifications: sugars from the 5' end m3 r94 m3, linkages s3 o93 s3 (s phosphorothioate, o phosphodiester), T or U not given here
B4: GA202: PCSK9 gRNA; protospacer AAGCGGGTCCCGTCCTCCTC (SEQ ID NO: 196) (nucleic acid)
guide: AAGCGGGUCCCGUCCUCCUCGUUUUAGAGCUAGAAAUAGCAAGUUAAAAUAAGGCUAGUCCGUUAUCAACUUGAAAAAGUGGCACCGAGUCGGUGCUUUU
modifications: sugars from the 5' end m3 r94 m3, linkages s3 o93 s3 (s phosphorothioate, o phosphodiester), T or U not given here
B5: GA198: PCSK9 gRNA; protospacer CCACCGGGAAATCGAGGGCA (SEQ ID NO: 192) (nucleic acid)
guide: CCACCGGGAAAUCGAGGGCAGUUUUAGAGCUAGAAAUAGCAAGUUAAAAUAAGGCUAGUCCGUUAUCAACUUGAAAAAGUGGCACCGAGUCGGUGCUUUU
modifications: sugars from the 5' end m3 r94 m3, linkages s3 o93 s3 (s phosphorothioate, o phosphodiester), T or U not given here
B6: GA200: PCSK9 gRNA; protospacer CTAGGAGATACACCTCCACC (SEQ ID NO: 194) (nucleic acid)
guide: CUAGGAGAUACACCUCCACCGUUUUAGAGCUAGAAAUAGCAAGUUAAAAUAAGGCUAGUCCGUUAUCAACUUGAAAAAGUGGCACCGAGUCGGUGCUUUU
modifications: sugars from the 5' end m3 r94 m3, linkages s3 o93 s3 (s phosphorothioate, o phosphodiester), T or U not given here
B7: GA203: PCSK9 gRNA; protospacer TGACCCTGCCCTCGATTTCC (SEQ ID NO: 197) (nucleic acid)
guide: UGACCCUGCCCUCGAUUUCCGUUUUAGAGCUAGAAAUAGCAAGUUAAAAUAAGGCUAGUCCGUUAUCAACUUGAAAAAGUGGCACCGAGUCGGUGCUUUU
modifications: sugars from the 5' end m3 r94 m3, linkages s3 o93 s3 (s phosphorothioate, o phosphodiester), T or U not given here
B8: GA199: PCSK9 gRNA; protospacer GAAGCGGGTCCCGTCCTCCT (SEQ ID NO: 193) (nucleic acid)
guide: GAAGCGGGUCCCGUCCUCCUGUUUUAGAGCUAGAAAUAGCAAGUUAAAAUAAGGCUAGUCCGUUAUCAACUUGAAAAAGUGGCACCGAGUCGGUGCUUUU
modifications: sugars from the 5' end m3 r94 m3, linkages s3 o93 s3 (s phosphorothioate, o phosphodiester), T or U not given here
B9: GA206: PCSK9 gRNA; protospacer CCGGTGGTCACTCTGTATGC (SEQ ID NO: 200) (nucleic acid)
guide: CCGGUGGUCACUCUGUAUGCGUUUUAGAGCUAGAAAUAGCAAGUUAAAAUAAGGCUAGUCCGUUAUCAACUUGAAAAAGUGGCACCGAGUCGGUGCUUUU
modifications: sugars from the 5' end m3 r94 m3, linkages s3 o93 s3 (s phosphorothioate, o phosphodiester), T or U not given here
B10: GA205: PCSK9 gRNA; protospacer CCCTGCCCTCGATTTCCCGG (SEQ ID NO: 199) (nucleic acid)
guide: CCCUGCCCUCGAUUUCCCGGGUUUUAGAGCUAGAAAUAGCAAGUUAAAAUAAGGCUAGUCCGUUAUCAACUUGAAAAAGUGGCACCGAGUCGGUGCUUUU
modifications: sugars from the 5' end m3 r94 m3, linkages s3 o93 s3 (s phosphorothioate, o phosphodiester), T or U not given here

Columns and labels:
PCSK9 gene [1] = assay: PCSK9 gRNA/SpCas9 editing in primary human hepatocytes (Tables 2, 4); format: cell-based; conditions: SpCas9 mRNA MS002 1:1 by weight; for Human Primary Hepatocyte Editing % 100: 100 ng/RNA/mL; for Human Primary Hepatocyte Editing % 500: 500 ng/RNA/mL; for Human Primary Hepatocyte Editing % 2500: 2500 ng/RNA/mL
Protocol: In set of experiments, PCSK9 gRNAs were co-transfected with an equivalent amount (1:1 ratio by weight) of in vitro transcribed commercially available SpCas9 mRNA MS002 purchased from TriLink Biotechnologies into primary human hepatocytes at 2500, 500, or 100 ng/RNA/mL and processed as described in detailed methods. Extracted genomic DNA was analyzed for gene editing at the target site with next-generation sequencing of PCR amplicons generated around the target sites. Samples were prepared using the Nextera XT DNA library preparation kit (Illumina) according to the manufacturer's protocol. Briefly, two rounds of PCR were performed first to amplify the region of interest and second to add DNA sequences required for next generation sequencing and sample identification to the initial product. The final amplicon was sequenced on the Illumina MiSeq instrument according to the manufacturer's protocol. A wide range of editing activities (Table 2) were observed. In a second set of experiments, ANGPTL3 gRNAs were co-transfected with an equivalent amount of in vitro transcribed SpCas9 mRNA (1:1 ratio by weight) into primary human hepatocytes and processed and analyzed similarly (Table 3).
PCSK9 gRNAs were co-transfected with an equivalent amount of in vitro transcribed SpCas9 mRNA MS002 (1:1 ratio by weight) into primary human hepatocytes and processed as described in detailed methods. A wide range of editing activities were observed (Table 4; ND=Not determined). The guides with the highest editing activity at five days post transfection were GA001, GA002, GA007, and GA008.
Human primary hepatocytes were transfected at 2500, 1250, 500, and 250 ng/test article/mL with SpCas9 mRNA MS002 and a gRNA targeting PCSK9 with modifications to the tracr. Genomic DNA was processed, sequenced, and analyzed as described in the detailed methods section. GA156 was transfected to serve as a positive control.
Plating, culturing, and transfection of primary hepatocytes. Primary human liver hepatocytes (PHH) and primary cynomolgus liver hepatocytes (PCH) from BioIVT were cultured per the manufacturer's protocol. Briefly, primary human hepatocytes and primary cyno hepatocytes were obtained as frozen aliquots from BioIVT. Four lots of primary human hepatocytes, each derived from a de-identified individual donor, were used for the experiments: STL (main donor) was used for all experiments, including screening experiments and off-target experiments; HLY, JLP, and TLY were used for off-target experiments. The HFG lot of primary cyno hepatocytes were used for experiments. Following the manufacturer's instructions, cells were thawed and rinsed prior to plating in 24-well plates that had been coated with bovine collagen overnight, with a density of approximate 350,000 cells/well in INVITROGRO hepatocyte medium supplemented with TORPEDO antibiotic mix (BioIVT). The cells were thawed and resuspended in hepatocyte thawing medium followed by centrifugation at 100 g for 10 min at 4° C. The supernatant was discarded, and the pelleted cells resuspended in hepatocyte plating medium. Each vial contains approximately 5 million cells that were used for plating one 24-well plate. Plated cells were allowed to settle and adhere for 4-6 h in a tissue culture incubator at 37° C. under 5% CO2 atmosphere. After incubation, cells were checked for monolayer formation. The incubating media were then replaced with fresh hepatocyte maintenance media (complete INVITROGRO medium obtained from BioIVT, the cell line provider). The cells thus became ready for transfection. Each of the gRNAs were co-transfected with an equivalent amount of in vitro transcribed ABE8.8 mRNA (1:1 ratio by molecular weight) into primary human hepatocytes via MessengerMax reagent (Lipofectamine), using various dilutions to assess for editing activity at different concentrations of test article. MessengerMAX from Thermo Fisher is used for transfection. […]

PCSK9 gene [2] = assay: PCSK9 gRNA/SpCas9 editing in primary cynomolgus hepatocytes (Tables 2, 22); format: cell-based, cynomolgus monkey; conditions: SpCas9 mRNA MS002 1:1 by weight; for Cyno Primary Hepatocyte Editing % 100: 100 ng/RNA/mL; for Cyno Primary Hepatocyte Editing % 500: 500 ng/RNA/mL; for Cyno Primary Hepatocyte Editing % 2500: 2500 ng/RNA/mL

Molecule	Human Primary Hepatocyte Editing % 100 (PCSK9 gene [1]) [%]	Human Primary Hepatocyte Editing % 500 (PCSK9 gene [1]) [%]	Human Primary Hepatocyte Editing % 2500 (PCSK9 gene [1]) [%]	Cyno Primary Hepatocyte Editing % 100 (PCSK9 gene [2]) [%]	Cyno Primary Hepatocyte Editing % 500 (PCSK9 gene [2]) [%]	Cyno Primary Hepatocyte Editing % 2500 (PCSK9 gene [2]) [%]
B1	2	6.55	37.94	1.04	4.42	18.27
B2	1.27	8.98	24.98	0.91	5.27	19.37
B3	3.29	12.92	31.51	4.33	14.37	44.01
B4	2.54	10.75	34.75	1.54	8.91	31.13
B5	0.04	10.58	30.93	3.53	16.15	49
B6	3.8	8.68	5.31	5.15	20.51	54.36
B7	2.57	12.76	37.02	3.66	10.49	32.85
B8	1.17	6.89	29.95	3.07	15.11	45.32
B9	0.85	2.7	20.73	0.84	2.73	16.9
B10	3.74	12.42	38.04	3.01	12.04	36.43
